Earlier results in article PMC7809386.
Like-named read-outs stand apart in the source and are kept apart here.

Legend:
[1] = biological target: SecA (Escherichia coli) (UniProt P10408)
[2] = biological target: SecA (Escherichia coli) (UniProt P10408); remark: listed apart in the source

SecA (from UniProt P10408)
Kd [1]: 100 nM | Kd [2]: 0.74 nM
